The target of one assay is NRBF2_3A (UniProt Q8VCQ3). Put plainly: co-IP; competitive co-IP: FLAG-tagged bait and GFP-tagged competitor transiently over-expressed in HEK293T; anti-FLAG M2 magnetic beads; immunoblot for endogenous PIK3R4/VPS15 and PIK3C3/VPS34; Figure 6C also after 100 nM rapamycin (2 h) or EBSS medium (2 h). A general note: Immunoblotting shows a protein as a band on a membrane.
The next assay has as its target NRBF2_5A (UniProt Q8VCQ3). The assay is described as above.

Regarding “endogenous PIK3R4/VPS15 (from UniProt Q99570 1-1358) (natural protein)”, the endogenous PIK3R4/VPS15 pulled down, against wild type (% less than wild type) in the assay with NRBF2_3A and with NRBF2_5A was 50 in each case.

Source of the values: paper PMC12758336.
